How the values were obtained:
Format in all cases: cell-based, mouse
KCC2 mRNA = assay: RT-qPCR of mRNA abundance; settings: control neurons, BDNF 100 ng/mL, 2 hours
Experimental: For analysis of mRNA abundance: 1 μg of RNA was immediately reverse-transcribed into cDNA with a taqman reverse transcripton kit (Applied Biosystems) and a mixture of random decamer and oligo(dT) primers in a final volume of 30 μL and subjected to TaqMan Gene Expression Assays (Applied Biosystems) for GluR1 (assay ID: Mm00433753_m1), CaMKIIu (Mm00437967_m1), Homer2 (Mm01314936_m1), KCC2 (Mm00803929_m1), Kv1.1 (Mm00439977_s1), GW182 (Mm00523487_m1), GAPDH (Mm99999915_g1), and β-tubulin-III (Mm00727586_s1). RT-qPCR was performed using a Stratagene Mx3000P machine and software in 20 μL reactions on a 96-well optical plate at 95° C. for 5 min, followed by 40 cycles of 95° C. for 30 sec, 55° C. for 1 min and 72° C. for 30 sec. The threshold and threshold cycle (Ct) values were determined using default settings. Standard curves were constructed and used for quantitation of target transcript abundance. In this method, 1:5 dilution series of an independent Standard sample are amplified to generate a curve that relates the initial quantity of the specific target in the Standard samples to the Ct. The standard curve is then used to derive by interpolation the initial sample template quantities based on their Ct values. All derived quantities were further normalized to neuron-specific β-tubulin III, whose translational status is unchanged by BDNF (Schratt et al., 2004). […]

[1] = test system: miRNA reporter (CXCR4 shRNA); assay: CXCR4 miRNA-reporter luciferase assay; settings: BDNF stimulation, Actinomycin-D
Source text: The following CXCR4 siRNA/miRNA reporter assay constructs (Addgene) were used: siRNA reporter (PCD FLIP, Plasmid 12567), miRNA reporter (PCD FL4X, 12565), control luciferase reporter (PCD FLOX, 12563), and CXCR4 shRNA (pLKO.1 puro CXCR4 siRNA-2, 12272) (Wang et al., 2006). Let-7 luciferase reporters with wild-type or mutated Let-7 miRNA binding sites were gifts from G. Hannon (Liu et al., 2005b). 3′UTR reporters were constructed by inserting 3′UTRs from GluR1, CaMKIIu or KCC2 downstream of luciferase in pGL3-Control vector (Promega). A Lin28-resistant Let-7 pre-miRNA was generated by mutation of the conserved Lin28 “GGAG” recognition motif to “GtAt” in the terminal loop of pLV-hsa-let-7a-1 (Biosettia). […]
44 hours post-transfection, hippocampal cultures were treated with serum-reduced media (0.5% B27) and Actinomycin-D (0.5 ng/mL) as previously described, followed by BDNF stimulation 100 ng/mL for 4 hours. Cell lysates were collected in 1×lysis buffer (reporter lysis buffer, Promega), and luciferase (Promega) and chemiluminescent β-gal (Roche) reporter assays carried out according to manufacturer instructions using a plate-reading luminometer (Perkin Elmer). […] When required, fold change was calculated by dividing normalized stimulated samples by normalized unstimulated samples.

[2] = test system: hippocampal pyramidal neurons; assay: Endogenous P-body numbers by GW182 immunostaining; settings: 75 min after stimulation; mock 11.36±1.21; p<0.05
Source text: For fixed cells, confocal images were acquired in 0.3 μm (dendrites) or 1.7 μm (whole cells for arborization) Z sections on an LSM5 Pascal system (Carl Zeiss) using a 63×, 1.4 NA Plan Apochromat oil immersion objective and 2× optical zoom (dendrites) or using a 25×, 0.80 NA Plan-Neofluor multi-immersion objective and 0.7×-1× optical zoom (for whole cells). GFP was excited at 488 nm and emissions collected at 505-530 nm; mCherry was excited at 543 nm and emissions collected above 560 nm. Laser power and exposure time were adjusted to minimize photobleaching and avoid saturation. All experiments were from a minimum of 3 independent cultures and no more than 3 neurons per dish Z-stacks containing the entire neuron or process of interest were analyzed using Imaris 7.0.0 (Bitplane) and ImageJ software. […] The percent colocalization of P-body components was calculated by […]. The percent of colocalized fluorescence was calculated for each P-body component by first summing the aggregate fluorescence values that co-localized with the other P-body marker in ‘spots’, then dividing this quantity by the value of the total fluorescence intensity within the dendrite for that channel, and multiplying by 100. […]

B1: BDNF: brain-derived neurotrophic factor, a neurotrophin used to stimulate hippocampal neurons (protein, UniProt P23560 19-247, looked up)
Neurotrophic factor BDNF …: APMKEANIRGQGGLAYPGVRTHGTLESVNGPKAGSRGLTSLADTFEHVIEELLDEDQKVRPNEENNKDADLYTSRVMLSSQVPLEPPLLFLLEEYKNYLDAANMSMRVRRHSDPARRGELSVCDSISEWVTAADKKTAVDMSGGTVTVLEKVPVSKGQLKQYFYETKCNPMGYTKEGCRGIDKRHWNSQCRTTQSYVRALTMDSKKRIGWRFIRIDTSCVCTLTIKRGR
KCC2 mRNA levels (KCC2 mRNA): reduced mRNA levels | miRNA-mediated suppression of miRNA reporter by shCXCR4 [1]: greatly enhanced miRNA-mediated suppression | endogenous P-body numbers in individual neuronal dendrites, mean±SEM [2]: 15.48±1.26

— US20150148405A1, “Expression Construct for a Lin28-Resistant Let-7 Precursor MicroRNA” (THE JOHNS HOPKINS UNIVERSITY, priority 2012, published 2015)
